Molecular target: SARS-CoV-2 RBD, His6-tagged, for biolayer interferometry (SARS-CoV-2) (UniProt P0DTC2)
Assay: BLI

## CR3022 Fab
  Kd: 46.3 nM

— publication PMC8064889
